Source: the supplement of paper PMC10126150
± gives the standard deviation of the averaged measurements.

System: ATP
Test: switch fluorescence ratio, 500 uM ATP over buffer (Cy3 cluster intensity, sum of 5 cycles each) (fold (ratio)); higher = stronger signal-on switching upon ATP binding; sequences stand for … in TCGTCGGCAGCGTCAGATGTGTATAAGAGACAGTTTTTTTTTTTTTTTTTTTTTTTTT…TC
Conditions: aptamer strand: ATP DNA aptamer (quencher-CACCTGGGGGAGTATTGCGGAGGAAGG + anchor), 100 nM annealed; ATP concentration: 500 uM
In short: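 Exposure to 500 uM ATP lasted 15 min at 22 °C before imaging, and a selection-buffer image was taken beforehand, for Cy3-labelled switching-strand clusters on a modified Illumina MiSeq flow-cell annealed to 100 nM quencher-labelled ATP aptamer. Five buffer/ATP cycles were run with NaOH stripping and re-annealing between them. The fluorescence ratio per cluster is summed target-cycle over summed buffer-cycle Cy3 intensity, averaged per switch-domain sequence. Clusters outside 100-1000 RFU were excluded.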

| Sequence | switch fluorescence ratio |
| --- | --- |
| GGGTAGGTGC | 1.13 ± 0.044 |
| CAGAATCAAC | 1.05 ± 0.014 |
| CGAGTGGCGA | 1.077 ± 0.0022 |
| CAAATTTGTC | 0.994 ± 0.02 |
| CATTCTGCGC | 1.16 ± 0.05 |
| CGTTTGTTTT | 1 ± 0.041 |
| ATATTTTAAC | 1 ± 0.012 |
| TCGGCAGCGG | 1.01 ± 0.034 |
| GAGGAACCTG | 1.09 ± 0.0052 |
| TAGCTAGACG | 1.01 ± 0.012 |
| AGTAAATCTC | 1.04 ± 0.017 |
| GCTGAGAGTC | 0.992 ± 0.034 |
| ACCCGCACTT | 1.82 ± 0.24 |
| GGGAGTTAGA | 0.9885 ± 0.0063 |
| TGTTGAACGT | 1.004 ± 0.0086 |
| CCCGCGGTGT | 2.41 ± 0.19 |
| GGGGACCGGG | 1.07 ± 0.094 |
| TATTTGGCTA | 0.983 ± 0.045 |
| CTCTCGGATG | 1.01 ± 0.011 |
| TGCTCCTGAT | 1.02 ± 0.055 |
| CAGGAACGAG | 1.004 ± 0.0035 |
| ACGGTTTAAT | 1.04 ± 0.029 |
| GGTTATCGAG | 0.975 ± 0.037 |
| GAGCGGTTTG | 0.998 ± 0.017 |
| CCGTGAGAAT | 1.07 ± 0.018 |

| Sequence | switch fluorescence ratio |
| --- | --- |
| ACTTCGGTTT | 1.01 ± 0.035 |
| ATTGGGTTCT | 0.991 ± 0.057 |
| CTTGGTCAAG | 0.9834 ± 0.0062 |
| GTTATATCGC | 0.985 ± 0.03 |
| GCGCTTTTCT | 0.9784 ± 0.0063 |
| CAGGATCTAG | 1 ± 0.024 |
| TTCATTTTG | 1.01 ± 0.068 |
| TGGATTTAGT | 0.9825 ± 0.0084 |
| CGGAAGGCTT | 0.982 ± 0.0095 |
| TCGGGGGGGT | 1.06 ± 0.19 |
| TGGGCATATG | 0.993 ± 0.014 |
| ATGGTGTTTT | 0.9803 ± 0.008 |
| TCGTAGCAGG | 1.12 ± 0.14 |
| CGAATGGCGT | 1.029 ± 0.0063 |
| AGGTACGACG | 0.99 ± 0.013 |
| GGTTTGGGGA | 0.983 ± 0.011 |
| AAACTTATAA | 0.991 ± 0.029 |
| CCTGTTATGG | 1.01 ± 0.032 |
| GCACGGGGCT | 1.04 ± 0.018 |
| ATGGTGTGGG | 1.03 ± 0.021 |
| ATCTTAAATA | 0.9918 ± 0.0058 |
| TGGCTAAGGT | 1.023 ± 0.0017 |
| ATTGGGGTGT | 1.01 ± 0.022 |
| TCATTTGGAG | 0.9816 ± 0.0076 |
| TTGGTTTGTC | 0.99 ± 0.037 |

| Sequence | switch fluorescence ratio |
| --- | --- |
| TTCAGGGTTC | 0.966 ± 0.027 |
| GCGTTAGCTT | 0.982 ± 0.069 |
| CGATGTAGTA | 1.016 ± 0.0058 |
| TCGGGCAGTG | 0.99 ± 0.03 |
| TAAGAAAACT | 1.36 ± 0.22 |
| TTAAAAGGTC | 1.027 ± 0.0083 |
| TTACAAATTT | 0.9647 ± 0.0066 |
| TCAGGTACAT | 1.07 ± 0.014 |
| AAAAGATTGG | 0.969 ± 0.011 |
| CAGATGGTCG | 0.938 ± 0.057 |
| TTATGGGAA | 1.04 ± 0.038 |
| GGGAAGAGGG | 1 ± 0.016 |
| GGTGAGATGG | 1 ± 0.069 |
| GGGTTAAGGC | 1.01 ± 0.062 |
| GGGGTACACG | 0.979 ± 0.027 |
| AGGCTCCGAG | 1.03 ± 0.011 |
| TTCTGGGACT | 0.999 ± 0.021 |
| GTTTTGGTAC | 1.01 ± 0.038 |
| ATGTATTACT | 1.03 ± 0.033 |
| AGATAACTTT | 1.02 ± 0.013 |
| CGTATTCATA | 0.977 ± 0.037 |
| CAATATGTTT | 0.991 ± 0.051 |
| ATTGCTAAGC | 1.039 ± 0.0054 |
| TCATTTATTT | 0.98 ± 0.015 |
| GTTGGGATAA | 1 ± 0.038 |

| Sequence | switch fluorescence ratio |
| --- | --- |
| TATCACAGTT | 1.01 ± 0.035 |
| GGGGTTTGCC | 0.9678 ± 0.0086 |
| TCTTATGGAA | 1.04 ± 0.047 |
| GGAGTAGGCT | 0.938 ± 0.057 |
| CTTAAAGGTC | 1.02 ± 0.052 |
| ATTATATGCG | 0.992 ± 0.0024 |
| ATAGTTTTTT | 0.977 ± 0.017 |
| AGGGATTAGG | 0.99 ± 0.034 |
| TACGGGGTAG | 0.996 ± 0.028 |
| TTCGTGAATT | 1.11 ± 0.1 |
| TGTGTGAGTG | 0.981 ± 0.054 |
| GCTAAAAGTT | 0.995 ± 0.021 |
| TAGTGGGGGA | 0.995 ± 0.015 |
| TTGTAGACGT | 1.02 ± 0.0093 |
| TATTTTTCTC | 0.983 ± 0.034 |
| TGCTTATTGG | 0.9725 ± 0.0081 |
| TGCACATAGG | 1.06 ± 0.016 |
| ACGGCTGTTC | 1.01 ± 0.027 |
| GCGAAAGGGT | 1 ± 0.015 |
| AATCCGGAAC | 1.92 ± 0.023 |
| GAAGGGTACG | 1.07 ± 0.091 |
| ATGCGTATCC | 1 ± 0.034 |
| TTACTTTCCT | 1.12 ± 0.086 |
| TTGCAAGGGC | 1.08 ± 0.074 |
| TGGTGTATCC | 0.985 ± 0.019 |

| Sequence | switch fluorescence ratio |
| --- | --- |
| GTCGGCAGGT | 0.994 ± 0.015 |
| TATGAAAGGC | 0.991 ± 0.053 |
| AAGGAGTTGC | 0.9733 ± 0.0062 |
| TCAACGATAT | 1.07 ± 0.075 |
| TTTCTTATTT | 1 ± 0.013 |
| ACTGTACGGC | 1.46 ± 0.016 |
| TGAGATAGAT | 1 ± 0.013 |
| TCATGGGGCT | 1.02 ± 0.019 |
| ACGAATTGTT | 0.9848 ± 0.0026 |
| TGGTTTAACG | 0.99243 ± 0.00051 |
| ATATGAAGAG | 0.99884 ± 9.2e-05 |
| GCTAGGCATG | 1.04 ± 0.027 |
| TTGGAGTTTG | 1.02 ± 0.051 |
| TTTCGACAAG | 1.07 ± 0.1 |
| AAAAATTTTT | 0.995 ± 0.052 |
| CCGAGGAAGC | 1.34 ± 0.14 |
| TCAAACGAC | 1.08 ± 0.011 |
| TCATGATTTT | 0.9992 ± 0.0048 |
| GAGGGAAAAA | 1.44 ± 0.88 |
| TAGCGAGTAT | 1 ± 0.011 |
| AGACTGTTGA | 1.04 ± 0.019 |
| CGAAAGATGG | 1 ± 0.034 |
| ATCGAAATGG | 1 ± 0.024 |
| CAGAGGGGTG | 1.05 ± 0.012 |
| TTAGTGTTGT | 0.969 ± 0.028 |

| Sequence | switch fluorescence ratio |
| --- | --- |
| GTTGGGTATC | 0.998 ± 0.023 |
| GCATAATTTA | 0.9898 ± 0.0096 |
| TGAAGGGGCC | 2.74 ± 2.5 |
| AACGGATCGG | 0.998 ± 0.025 |
| AGCATTTATA | 0.981 ± 0.016 |
| TTAGTGAGGT | 1 ± 0.027 |
| TGGTGGAGAT | 1.01 ± 0.028 |
| CGGCTTTTGT | 1 ± 0.029 |
| TAGTTAGGGG | 1.01 ± 0.058 |
| CATGGGGGTA | 0.982 ± 0.026 |
| AGAAAATTCG | 0.981 ± 0.024 |
| GCTTTCTCGT | 1.03 ± 0.029 |
| AGGGAAGTCG | 0.9751 ± 0.0093 |
| CTTTAAGGTG | 1.39 ± 0.062 |
| AGATCCCGCG | 1.03 ± 0.032 |
| GTGGGATTAT | 1 ± 0.019 |
| TAAGTGCCAC | 1.01 ± 0.024 |
| ACGGGGAGGC | 1.07 ± 0.028 |
| AATAGCCGGG | 0.97 ± 0.066 |
| AGGGGGCGTC | 1.022 ± 0.0093 |
| AGAGCATACT | 2.12 ± 0.22 |
| TTTTTGTCGG | 0.996 ± 0.026 |
| TGTGTTCCGA | 0.9975 ± 0.0083 |
| GTTTCAAACG | 0.971 ± 0.025 |
| CTTGTTTAAC | 0.993 ± 0.035 |

| Sequence | switch fluorescence ratio |
| --- | --- |
| GATCTTATTC | 0.98506 ± 0.00068 |
| TGCAGGGGGT | 1.09 ± 0.14 |
| TGGGGGAACG | 0.984 ± 0.026 |
| TGAAGGATTT | 1.01 ± 0.034 |
| CAGAGGATGC | 0.995 ± 0.0041 |
| AGGATTTGGT | 0.984 ± 0.031 |
| GATAGCTCTG | 1.02 ± 0.021 |
| AATGGGGCAA | 1.058 ± 0.0077 |
| GAATACCTTT | 1.02 ± 0.013 |
| CGGCGTTCCG | 1 ± 0.055 |
| TGATATTTTA | 0.986 ± 0.035 |
| CTCATGTAAG | 1.009 ± 0.0014 |
| GTGGATATGG | 0.995 ± 0.043 |
| TTATTTTCAT | 1 ± 0.025 |
| TGGGGTAATG | 0.995 ± 0.038 |
| GGGGGAAGTA | 1.041 ± 0.0027 |
| ATTATATTTA | 1.02 ± 0.028 |
| GATGAGATTT | 0.972 ± 0.046 |
| GTTCCTTTTT | 1.02 ± 0.064 |
| TTGTAATTGC | 1.29 ± 0.34 |
| GACGGAAGTT | 1.004 ± 0.0017 |
| TGAGTTCGCA | 1.69 ± 0.13 |
| CATTTTTGTA | 0.986 ± 0.012 |
| AGGCAAAGGC | 1.06 ± 0.036 |
| AGGATGGTTG | 1 ± 0.021 |

| Sequence | switch fluorescence ratio |
| --- | --- |
| TTTGAAACCA | 1.01 ± 0.024 |
| TTATTCGGTT | 0.982 ± 0.031 |
| TTGGGTGGTG | 0.983 ± 0.033 |
| TTGGTTTAGA | 0.979 ± 0.028 |
| CTGTTATCGA | 0.9972 ± 0.0029 |
| TTTCGTCATC | 1.66 ± 0.91 |
| TACATGTAGC | 0.986 ± 0.02 |
| AGGTATTCAG | 1.01 ± 0.033 |
| TCACGAGGCT | 1.038 ± 0.0097 |
| TTTTAAGAT | 1.02 ± 0.029 |
| AATGAATTGG | 0.9691 ± 0.005 |
| GCTGGCTTGC | 0.988 ± 0.021 |
| GATAGAGCAT | 1.01 ± 0.013 |
| CGCGGGATGT | 1.02 ± 0.045 |
| TTACTTTGGC | 1 ± 0.022 |
| GTTTTTCGAT | 1.02 ± 0.001 |
| TGGATGAGTG | 0.9822 ± 0.0077 |
| GAGGATATGG | 0.98 ± 0.021 |
| CCCGGGGGGT | 1.56 ± 1 |
| TACTTGGGC | 1.02 ± 0.021 |
| TAAGAAAAAA | 1.017 ± 0.0075 |
| TGCGTAAAAT | 1.008 ± 0.0028 |
| CAAAGGGCGG | 0.9985 ± 0.0012 |
| GCGAGGGTGT | 1.12 ± 0.039 |
| TTGTGTAGGC | 0.984 ± 0.025 |
